The test concerns the target T1, human PD-L1 expressed at the cell membrane (human, UniProt Q9NZQ7 19-290).
T1 construct: whole, on cells; also called programmed death-ligand 1; cellular PD-L1 protein
Description: flow cytometry (FACS) titration on 293T cells stably transfected with human PD-L1, anti-mouse IgG PE detection.

The EC50 is the concentration at which the effect is half-maximal.

T1 sequence (Q9NZQ7 19-290): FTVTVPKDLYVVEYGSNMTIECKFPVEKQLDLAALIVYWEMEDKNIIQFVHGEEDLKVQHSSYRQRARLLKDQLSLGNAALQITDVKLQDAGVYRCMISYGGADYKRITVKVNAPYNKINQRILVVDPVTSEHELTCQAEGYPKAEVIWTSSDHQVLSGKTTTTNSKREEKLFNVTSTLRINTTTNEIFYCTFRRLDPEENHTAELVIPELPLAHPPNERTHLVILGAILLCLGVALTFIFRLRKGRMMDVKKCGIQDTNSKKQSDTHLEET

B1: anti-PD-L1 mouse monoclonal antibody Q106 (antibody, V domains shown)
VH: DVQLQESGPGLVKPSQSLSLTCSVTGYSITSDYAWNWIRQFPGDTLEWMGYINYSGSSTYNPSLISRLSITRDTSKNQFFLQLNSVTSEDTATYYCARGPDWDWYFDYWGQGTTLTVSS
VL: DIVLTQSPATLSVTPGDSVSLSCRASQSISNNLHWYQQKSHESPRLLIKYASQSISGIPSRFSGSGSGTDFTLSINGVETEDFGMYFCQQTNSWPTFGGGTKLEIK
notes: also called PD-L1 antibody Q106
For the molecule B1, the EC50 was 0.3 nM. This counts as sub-nanomolar.
